Results from IntAct's records for PubMed 31515488.

B1: Huntingtin-interacting protein 1 (Homo sapiens), O00291 (parent)
chain: MDRMASSMKQVPNPLPKVLSRRGVGAGLEAAERESFERTQTVSINKAINTQEVAVKEKHARTCILGTHHEKGAQTFWSVVNRLPLSSNAVLCWKFCHVFHKLLRDGHPNVLKDSLRYRNELSDMSRMWGHLSEGYGQLCSIYLKLLRTKMEYHTKNPRFPGNLQMSDRQLDEAGESDVNNFFQLTVEMFDYLECELNLFQTVFNSLDMSRSVSVTAAGQCRLAPLIQVILDCSHLYDYTVKLLFKLHSCLPADTLQGHRDRFMEQFTKLKDLFYRSSNLQYFKRLIQIPQLPENPPNFLRASALSEHISPVVVIPAEASSPDSEPVLEKDDLMDMDASQQNLFDNKFDDIFGSSFSSDPFNFNSQNGVNKDEKDHLIERLYREISGLKAQLENMKTESQRVVLQLKGHVSELEADLAEQQHLRQQAADDCEFLRAELDELRRQREDTEKAQRSLSEIERKAQANEQRYSKLKEKYSELVQNHADLLRKNAEVTKQVSMARQAQVDLEREKKELEDSLERISDQGQRKTQEQLEVLESLKQELATSQRELQVLQGSLETSAQSEANWAAEFAELEKERDSLVSGAAHREEELSALRKELQDTQLKLASTEESMCQLAKDQRKMLLVGSRKAAEQVIQDALNQLEEPPLISCAGSADHLLSTVTSISSCIEQLEKSWSQYLACPEDISGLLHSITLLAHLTSDAIAHGATTCLRAPPEPADSLTEACKQYGRETLAYLASLEEEGSLENADSTAMRNCLSKIKAIGEELLPRGLDIKQEELGDLVDKEMAATSAAIETATARIEEMLSKSRAGDTGVKLEVNERILGCCTSLMQAIQVLIVASKDLQREIVESGRGTASPKEFYAKNSRWTEGLISASKAVGWGATVMVDAADLVVQGRGKFEELMVCSHEIAASTAQLVAASKVKADKDSPNLAQLQQASRGVNQATAGVVASTISGKSQIEETDNMDFSSMTLTQIKRQEMDSQVRVLELENELQKERQKLGELRKKHYELAGVAEGWEEGTEASPPTLQEVVTEKE
partner: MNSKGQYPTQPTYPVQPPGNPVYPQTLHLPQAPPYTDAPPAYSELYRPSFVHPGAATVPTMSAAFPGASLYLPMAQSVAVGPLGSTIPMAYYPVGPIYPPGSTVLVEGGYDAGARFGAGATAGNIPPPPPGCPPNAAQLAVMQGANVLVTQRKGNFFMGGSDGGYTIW
B2: Syntenin-2 (Homo sapiens), Q9H190 (parent)
chain: MSSLYPSLEDLKVDQAIQAQVRASPKMPALPVQATAISPPPVLYPNLAELENYMGLSLSSQEVQESLLQIPEGDSTAVSGPGPGQMVAPVTGYSLGVRRAEIKPGVREIHLCKDERGKTGLRLRKVDQGLFVQLVQANTPASLVGLRFGDQLLQIDGRDCAGWSSHKAHQVVKKASGDKIVVVVRDRPFQRTVTMHKDSMGHVGFVIKKGKIVSLVKGSSAARNGLLTNHYVCEVDGQNVIGLKDKKIMEILATAGNVVTLTIIPSVIYEHMVKKLPPVLLHHTMDHSIPDA
partner: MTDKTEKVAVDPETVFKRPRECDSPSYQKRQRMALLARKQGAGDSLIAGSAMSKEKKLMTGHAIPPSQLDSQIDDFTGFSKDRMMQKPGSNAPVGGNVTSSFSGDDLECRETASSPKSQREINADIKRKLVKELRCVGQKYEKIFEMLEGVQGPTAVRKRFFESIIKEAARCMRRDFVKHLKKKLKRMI
B3: Modulator of apoptosis 1 (Homo sapiens), Q96BY2 (parent)
chain: MTLRLLEDWCRGMDMNPRKALLIAGISQSCSVAEIEEALQAGLAPLGEYRLLGRMFRRDENRKVALVGLTAETSHALVPKEIPGKGGIWRVIFKPPDPDNTFLSRLNEFLAGEGMTVGELSRALGHENGSLDPEQGMIPEMWAPMLAQALEALQPALQCLKYKKLRVFSGRESPEPGEEEFGRWMFHTTQMIKAWQVPDVEKRRRLLESLRGPALDVIRVLKINNPLITVDECLQALEEVFGVTDNPRELQVKYLTTYQKDEEKLSAYVLRLEPLLQKLVQRGAIERDAVNQARLDQVIAGAVHKTIRRELNLPEDGPAPGFLQLLVLIKDYEAAEEEEALLQAILEGNFT
partner: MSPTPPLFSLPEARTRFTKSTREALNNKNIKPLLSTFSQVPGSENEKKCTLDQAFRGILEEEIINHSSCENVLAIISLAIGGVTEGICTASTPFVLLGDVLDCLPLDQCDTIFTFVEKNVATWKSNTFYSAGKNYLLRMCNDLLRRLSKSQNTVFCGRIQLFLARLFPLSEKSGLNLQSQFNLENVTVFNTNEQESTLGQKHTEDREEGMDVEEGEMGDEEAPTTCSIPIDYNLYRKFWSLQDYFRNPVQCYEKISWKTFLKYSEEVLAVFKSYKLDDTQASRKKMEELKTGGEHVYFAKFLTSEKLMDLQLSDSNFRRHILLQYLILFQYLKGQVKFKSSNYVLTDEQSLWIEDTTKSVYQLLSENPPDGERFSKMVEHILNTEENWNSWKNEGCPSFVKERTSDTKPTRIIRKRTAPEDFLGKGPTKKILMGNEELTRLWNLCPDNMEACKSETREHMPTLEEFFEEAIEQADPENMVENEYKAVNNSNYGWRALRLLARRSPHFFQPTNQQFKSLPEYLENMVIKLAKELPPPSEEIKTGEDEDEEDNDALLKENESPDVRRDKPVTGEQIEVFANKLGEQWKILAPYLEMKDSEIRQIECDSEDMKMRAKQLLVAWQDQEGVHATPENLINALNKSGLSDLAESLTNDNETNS
B4: Syntenin-1 (Homo sapiens), O00560 (parent)
chain: MSLYPSLEDLKVDKVIQAQTAFSANPANPAILSEASAPIPHDGNLYPRLYPELSQYMGLSLNEEEIRANVAVVSGAPLQGQLVARPSSINYMVAPVTGNDVGIRRAEIKQGIREVILCKDQDGKIGLRLKSIDNGIFVQLVQANSPASLVGLRFGDQVLQINGENCAGWSSDKAHKVLKQAFGEKITMTIRDRPFERTITMHKDSTGHVGFIFKNGKITSIVKDSSAARNGLLTEHNICEINGQNVIGLKDSQIADILSTSGTVVTITIMPAFIFEHIIKRMAPSIMKSLMDHTIPEV
partner: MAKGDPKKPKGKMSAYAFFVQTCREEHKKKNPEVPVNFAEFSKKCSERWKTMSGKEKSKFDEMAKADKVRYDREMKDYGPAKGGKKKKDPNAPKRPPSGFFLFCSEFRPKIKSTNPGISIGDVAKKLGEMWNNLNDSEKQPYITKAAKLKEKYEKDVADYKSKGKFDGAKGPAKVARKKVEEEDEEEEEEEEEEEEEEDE
B5: IQ motif and ubiquitin-like domain-containing protein (Homo sapiens), Q8NA54 (parent)
chain: MSNQQEKYEAQNIVNSTEESDDAFDTVTIPVPSEEPQESDQTEEHESGIEQFSESHAIHVEEQSDQSFSSLEPDNEQLMEEVISPRQVSYTPQHHEKQYAMQRPNDDSLAFLDKIKSVKESLQESVEDSLATVKVVLIPVGQEIVIPFKVDTILKYLKDHFSHLLGIPHSVLQIRYSGKILKNNETLVQHGVKPQEIVQVEIFSTNPDLYPVRRIDGLTDVSQIITVTVQTGLDQYQQVPVEIVKSDFHKPFLGGFRHKVTGVEYHNAGTQTVPKRIPERLSIFCRDTQTVFQKKNLQQTTNTTSTQMTNIGVYVSNMTDKLVTPGKYFSAAEYHAQRLKAVIVIQTYYRQWHAKIFVENLRRQKSLRLEWETQQELRKIREKEEWIKLDYHRRHNPKTNEDFEFLYNALEFWRQEELTRINQSFTGAERKAALCELLEKETQIIASIGRHRYIAYMANQEAAIQAFLDKCSAPKIWRTPNGKTIEMDTQFTIRARELQNIYKCIMLKNISQDERLDVLLTLKHTVKEHECKLTQEILELIDREVDLMMRGVKHHNLEGLRKRIATLFFHYIKTPLFNPEVAKYLKVPQDPLKFYKKIYFCHSCQLYLPSTEFSVSSTSRRIYRCRNCINLQNEAQKRESFLKYKCLLQQLYYTEADYEDDSKIAFLMQLQDIQYLTENIWASQSVLSACDNLSDLVMVRWNKSLEWSPWNCILLTKDEAAAHLKLTSIEEGYERSFIHKIKHKHILAKNYFSQVPVLASFILDDGEIDEIRWKYHSDTTPKIIESQRPPH

Variants of: B1
Conditions: with dazp2_human DAZAP2, Q15038

Row | effect of a mutation on the interaction | Variant
1 | with no effect | M263K

Variants of: B2
Conditions: with ct453_human CT45A3, Q8NHU0

Row | effect of a mutation on the interaction | Variant
2 | with no effect | R223C

Variants of: B3
Conditions: with thoc1_human THOC1, Q96FV9

Row | effect of a mutation on the interaction | Variant
3 | with no effect | R57K

Variants of: B4
Conditions: with hmgb3_human HMGB3, O15347

Row | effect of a mutation on the interaction | Variant
4 | with no effect | K124R

Variants of: B5
Conditions: with tri23_human TRIM23, P36406
Sequence of tri23_human TRIM23, P36406 (P36406 whole entry): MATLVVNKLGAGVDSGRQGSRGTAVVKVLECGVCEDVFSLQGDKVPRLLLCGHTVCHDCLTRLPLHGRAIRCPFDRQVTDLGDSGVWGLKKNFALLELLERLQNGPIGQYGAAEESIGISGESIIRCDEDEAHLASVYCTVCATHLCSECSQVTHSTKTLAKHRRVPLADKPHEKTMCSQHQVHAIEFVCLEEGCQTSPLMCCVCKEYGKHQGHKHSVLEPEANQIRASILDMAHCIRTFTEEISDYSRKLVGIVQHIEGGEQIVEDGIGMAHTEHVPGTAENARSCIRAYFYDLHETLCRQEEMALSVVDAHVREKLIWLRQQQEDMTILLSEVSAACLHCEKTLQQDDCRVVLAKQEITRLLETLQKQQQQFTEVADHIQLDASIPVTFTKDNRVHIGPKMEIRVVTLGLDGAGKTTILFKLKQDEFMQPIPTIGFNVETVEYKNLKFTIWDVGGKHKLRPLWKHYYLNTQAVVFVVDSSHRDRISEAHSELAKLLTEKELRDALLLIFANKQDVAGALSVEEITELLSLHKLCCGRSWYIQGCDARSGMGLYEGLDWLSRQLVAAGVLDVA

Row | effect of a mutation on the interaction | Variant
5 | with no effect | V126M
